From the DeepSol protein solubility set

Experiment: soluble on expression in E. coli; label from the status in PepcDB or PDB records

Row | Sequence | soluble on expression in E. coli
1 | MSLDSIKVKNEYEKLTGSDSVVRRGMFNVYQKKNDYYFEIPSTLLERDMLVVNKLQRVPAELNEAGVNRGTNYENQMIRFELDKSANKLLIRQSRPLPISPSEDAISQSVKDNYISPLIAGFKVEAYNNDSTSILIKVNDIYDGTETSINNVFTNINLGTSAIKNLSRILSIKSFDNNVVATSELTTRVTEGTTTIYVTVEVSSSILLLPEVPMTGRLDNPRVGYFTNPLTNFSDGQQRVNKKQFITRWRLEPRPEDRAAYLRGELVEPRKPIVFYIENSTPYRWRKYIKQGIEDWQVAFERAGFKNAIIAKDITEDMEVDMDDVNYSVLTYAASTKANAMGPSILDPRSGEILEADIMWWHNVLSMLQEWITVQTGVVRPEARGVALPDSLMGDAMRFVACHEVGHSLGLRHNMMGSWAFPTDSLRSKTFTDRMNSTSSSIMDYARFNYVAQPGDGIKALSPHIGPYDMFAIEYGYRWYGKQTPEEEKELLQDFLAKHTDRLYKYSEAQDPRDAVDPRAQNEDLGDDPIRSSQYGIANLKCIVPQIIQWTTTGEKGQTYEEASRLYYAVINQWNNYLYHVMANIGGIYIENTTVGDGEKTYTFVEKEKQQAALRFLLDEVLCYPKWLFDPEIAQYTYLLKNTPLGVVENAPTQVLKNAQAYVFWDLLSNNRLMRMLENESVNGKKAFTAVELMDGLHKSIFAVTERGGLPDVMTRNLQKGFVDALITAAAESEGVKVNKKLIDNHFLFDLQTPICSCDDHVHRSAHTDRMGARRELNFYGSQINRISDAISVKRGELLRIKDLLQSRLGTSDVATKYHYKDLILRINTALGISKEGHHHHHH | soluble
2 | MLRLSAPGQLDDDLCLLGDVQVPVFLLRLGEASWALVEGGISRDAELVWADLCRWVADPSQVHYWLITHKHYDHCGLLPYLCPRLPNVQVLASERTCQAWKSESAVRVVERLNRQLLRAEQRLPEACAWDALPVRAVADGEWLELGPRHRLQVIEAHGHSDDHVVFYDVRRRRLFCGDALGEFDEAEGVWRPLVFDDMEAYLESLERLQRLPTLLQLIPGHGGLLRGRLAADGAESAYTECLRLCRRLLWRQSMGESLDELSEELHRAWGGQSVDFLPGELHLGSMRRMLEILSRQALPLD | not soluble
3 | DQNAYHSIRTLLKSPTTLGEVKEHITHALTITPTKGSVINAFEHMWGYFKKQCTQYEKQHSRELKALYIENQIDYFELLSFLKNLADKYAVEYLQQSTILNITK | not soluble
4 | MGSDKIHHHHHHMQERGLVGLGLRREMLSEFCQQLPSAIDFLEVAPENWMTLGGKYGKQFRQLTEQHTFFCHGLSLSIGSPEPLDLEFVRRIKAFMDLHQIDVYSEHLSYCSGAGHLYDLMPIPFTEAAVKHVARRVKQVEDILYRPLILENVSFYAAPSAQMTELAFLTAVLEEADCKLLLDVNNIYVNSINHQYDALAFLKAMPTERIAYLHIAGHFKESEELLIDTHGSDINAPVWALLDSCYAEHGVLPTLLERDFNLPATAHLLDEINQIHAYQARAKSNLDKRIA | not soluble
5 | NLVNFHRMIKLTTGKEAALSYGFYGCHCGVGGRGSPKDATDRCCVTHDCCYKRLEKRGCGTKFLSYKFSNSGSRITCAKQDSCRSQLCECDKAAATCFARNKTTYNKKYQYYSNKHCRGSTPRC | soluble
6 | MGSDKIHHHHHHMTPTMSNIATLDDVRYQEHILQGVSRTFALTIPQLPPALREVVGNAYLLCRIVDTVEDDSALTLEQTRELAEMFIEVVSGTVEAETFARALYPLLSEHTIPAEHDLIKHTPSVIRMTHSFNPVQRQALERCIRIMGQGMAAYQESESLSGLENLAEMDRYCYHVAGVVGEMLTELFCDYSPEINQHKPALMQLSVSFGQGLQMTNILKDIWEDRKRGACWLPRDIFLQEGFDLNDLQPGCPERGFHAGLGTLIGIAKTHLQNALAYTCLIPSHEAGVRRFCLWAIGMAVLTLNKINHKRDFITGREVKISRRSVRATVLITSLLASQDWALKKIFAISSRNLPEVQIARS | not soluble
7 | MGSDKIHHHHHHLKKITNFRSLGGYQNAHGQMVKDGLIFRSGQLFELEDDQSHYLGQTLGIKHIVDMRSDDERTEFPDTVWEGADYAVLDILKDATANNASLGRMITEKGNVHENMLATYEQLALSDSAKTGYRQFIQGLLRPNEPTIFHCFAGKDRTGVGAALILKILDVSEQDIMADYLQTNAERTVANEEILAGLKERGFTDQQLKSIGEALKVDADYLRRYFQVIDQQFGPFQQYLREGLKLSAGEIAQFRDLYLQK | not soluble
8 | MNTLYTLFATCPRGLETVLSQELESLGCTDVQVFDGGVSCRGGLEQVYAANLHSRTASRILLRLTKGTYRNERDIYKLAKNINWFNWFTLQQTFKVKVEAKRANVKSIQFVGLTVKDAVCDAFRDIYDARPSVDKAAPDVRIHAFLNERNVEIFIDTSGEALFKRGYRLDTGEAPLRENLAAGLLLSAGYDGTQPFQDPFCGSGTIAIEAAWIAARRAPGMMRRFGFEKLQNFDKTLWSDLRRRAEAQTRPVRAPIAGSDNDRRIVQTALDNARRAGVDDIVSFSVADAQSVRPNGENGIMVSNPPYGVRLEEVRALQALYPQLGTWLKKHYAGWLAAMFTGDREMPKFMCLSPKRKIPLYNGNIDCRLFLIDMVEGSNR | not soluble
9 | MGSDKIHHHHHHLSGCVSLPPPAPIVHQPMSARAALPAPPPGNGAVYQDANQYHSLFIDRRARQIGDTLVILLTERTNASKRSNSSANKNGDVSFGIPPIVFGVPITKKIDLGASSSNDFAGKGEAASANNFSGTITVTVVDVLPNSYLVVSGEKQLAMTQGSEYIRFSGVVRPETVISNTVSSIQVADARIEYKANGYIDEAQTMGWLSRFFLTVAPF | not soluble
10 | MNMTKNTMGTKLPRKLEQKMAVVGEQIKLARLRRNLSVAQVAERATCSPLTVSRIEKGAPTVAIGIYLRVLYALQLDDDILWLAKEDKLGKTLQDLSLKTRERASKKE | not soluble
11 | HPMCKEHEDEKINIYCLTCEVPTCSMCKVFGIHKACEVAPLQSVFQGQKTE | soluble
12 | MSLKGKIIEKVISKVKCKSDENYKIGLWVRDSTAGIGTLTFYSDKTKVFGALGHPITDVDTGDIINISRGSLIDSSIVSVNKGIRGNPGELRGIFINENKPIGIVKNNTICGLFGKGYEKFEGLQYNKPMEVAMRNEVKLGPAKILTTIDGSQPKMYAINIEKLFDQSSPNPKSMMIKVTDAELLDKTGGIVQGMSGSPIIQNNKVVGAVTHVLINKPDTGYGVYIEWMLKSAGILEGHHHHHH | soluble
13 | MGSDKIHHHHHHMKLIDLHVHSYHSDGVLAPAVLVAMAAERGLASLAIADHDAVDGIDEAVAEGVRLGVDVIPAVELSVELGRFSDLHILGYCIDHHDPAFRDKLAGFRSARDNRGKAILEKINRRLLHSRKAPLSYDEVLSMAGGAVGRPHIGRVLVDNGYARDMEDAFRRYLIPCNVPKRYMPAGEAIAEIRRIGGVSVLAHPPTITDDRRRLRQVVEQLAQLGLDGLEVFNNLCFKDDMLYLERLAEEFGLLMTGGSDFHGFEDDVELGRGRGGLAVAHSLAEKVKELAAQRKHSHA | not soluble
14 | MSEEDKAKKLENLLKLLQLNNDDTSKFTQEQKKAMKDHKFWRTQPVKDFDEKVVEEGPIDKPKTPEDISDKPLPLLSSFEWCSIDVDNKKQLEDVFVLLNENYVEDRDAGFRFNYTKEFFNWALKSPGWKKDWHIGVRVKETQKLVAFISAIPVTLGVRGKQVPSVEINFLCVHKQLRSKRLTPVLIKEITRRVNKCDIWHALYTAGIVLPAPVSTCRYTHRPLNWKKLYEVDFTGLPDGHTEEDMIAENALPAKTKTAGLRKLKKEDIDQVFELFKRYQSRFELIQIFTKEEFEHNFIGEESLPLDKQVIFSYVVEQPDGKITDFFSFYSLPFTILNNTKYKDLGIGYLYYYATDADFQFKDRFDPKATKALKTRLCELIYDACILAKNANMDVFNALTSQDNTLFLDDLKFGPGDGFLNFYLFNYRAKPITGGLNPDNSNDIKRRSNVGVVML | soluble
15 | MAHHHHHHMSKKEAISTPRKSKKAEVVIEGCVTIGSKQLLPSALDESRREQLSKQFDDIIEAHVAIDGGIADPVAAKIKELPTLSVGFIARAMGLNLSNDQVLSLVEMVEERDTVSRGCVPVGPLKEIIVGALMSGVITRQDSVAPTSNRKKRHSVSENRPLMHVSRDSEELIYAAFRTLDVGNRGYMEAEELRHLFRSGLEPFTDEEMENMIAAAADPQNGLIFYEDFVDVLANE | soluble
16 | MGKMRTPQEVPARLDALAEAARKLKFDVREPVDAGAGAIGAVHSLDYLRFLREAHARWKQLPDDWGDEVVSNVFVREPNALRGVLAQAARYLADGSCPVGPHTWQSAYWAAQCAISGAQTLLDGERHAYALCRPPGHHARRDAAGGFCYLNNAAIAAQMLTQRYKRVAILDTDMHHGQGIQEIFYERSDVLYVSIHGDPENFYPVVAGFENERGAGEGYGYNVNLPMPHGSPEPVFFDRLQQAQRAIELFQPDALVLSLGFDVFEKDPQAMVAVSANGFERLGQAIGAFKLPTLIVQEGGYYIEGLEDNAERFFAGLAKALEHHHHHH | not soluble
17 | MGILDKVKNLLSQNADKVETVINKAGEFVDEQTQGNYSDAIHKLHDAASNVVGMSDQQS | soluble
18 | MLEESKNALRVFITGNPGVGKTTILLFLINKLSENNYKVAGFYCPEVRENGRRIGFRIVDITTNEGDWLAKENAPGRVKIGKYTVLEDSAKRITEITLSNINKADVLAIDEIGPMELKIPTIKKLIETILNNQKPLIAVLHRTQKPMGGRIYVITVENRDSIKYEILNYILSSLD | soluble
19 | MKLLKKPAGLKKRKVISKRIKIEKKPSSEDEGSSDEEVPKLDGEGSLDGSEDEDDGTVTVEKGGVKKHKLDLEKLKQSDPEFFKFLQQEDADLLNMEDDGDDDEDDDEDDEDEEEEESDDDEDDEEDDDKTKIKKIRKPKIKSDNSGRLIVDSNVYSYLQQVLVLDDETSTPTNPSDVRMAVDVFVACVARVGADIEAPKYVINEQSIFEAVVRMCFQAMPDILKRLLKAKPEGDKVLFSKTAIKKYQTYVRTYLHAMIVFLNEVQTTEVLIATIKAMTRLVDLYAHFSRMSKLLIKAVVRIWSRKTLECRLPAFVCMNLLVKNYPQHFVPLYKTAYVAFVANSKIVTNETWPLLQFMHRTFAELTILNPEQAYKYAFVYIRQTAVHLRNAMISKGRKDLIFSIYNWQMMQCMYMWVRVIAKAHSVNGAEQIGELVYPLIQVIVGIFKLCNAPTFLPLRLHCCQLLIQLQASCTNYIPILQVSCDCLEELARELKSKPKPVKGAVKLPDIECTLKCSSQFSDLPQWRKVISEHVFRTMMQSAHLLASQAAFPDVVLPINHRISAILETMKNGDHAHLFRGFQTKLKEHSRFVLDVLARKSVDINDEMQVRAVRFDLNNHDSPIKTFYRQWEKVWKMKERSAVENSKKDDKKKKKEEEAAAAKKRKPNETVEDEDDVKPEVSKAKRKRIKIGAAAKKADASVPDQFADMSMWSDED | soluble
20 | MESPSALPSLDQLLKEQGADQTLTDLILAILDRCGKIASALQGTSVDKVGSVNEFGDEQLTVDVIAENLLRSWAQSSEGSAVRAVCSEEDIHLQECHKNGEFILCWDPLDGSSIIDCNWAVGSIVSIWRIGHHGVQWQGADTLIQKTGRQQVASLIVVYGPRTTGVVAVNVDAGGIVKEGTALDLEMKDNGKFICRGKPIIKPQAKIFSPANLRAAQDLPAYKQLIEFWMEKRYTLRYTGGLVPDVYQIFVKQQGVFCNPASKAAPAKLRMCFEVLAIALVVEAAGGRTSNGQKSLLDVAIEHMDHRSALCCGSADEIKRMEETFAALSG | soluble
21 | MEMGMKRIANECFFAWVESEIKSGRSVKFRVKGNSMMPLLRNGKDEVVVGPYDKEELKLFDVILFRQTDRYVLHRIIQKRDSRYLMQGDGVCRFYEECEDTDIIGVVRKVCRPSGKKIETDSMCWRLESRLWLGLGGCRGMVLRVLNRLGCCLLF | not soluble
22 | MLVKPPYSYIALITMAIQNAPEKKITLNGIYQFIMDRFPFYRENKQGWQNSIRHNLSLNECFVKVPRDDKKPGKGSYWTLDPDSYNMFENGSFL | soluble
